Where “and” joins values, the source holds several entries; their conditions need not be identical. Equal entries are not always repeated.
Molecular target: F-actin (Sus scrofa)
Experiment: co-sedimentation

B1: titin N2A Ig80-IS-Ig81-Ig82-Ig83 (protein)
chain: SIRVVEKTTATFIAKVGGDPIPNVKWTKGKWRQLNQGGRILIHQKGDEAKLEIRDTTKTDSGLYRCVAFNKHGEIESNVNLQVDERKKQEKIEGDLRAMLKKTPALKKGSGEEEEIDIMELLKNVDPKEYEKYARMYGITDFRGLLQAFELLKQSQEEETHRLEIEELEKSERDEKEFEELVAFIQQRLTQTEPVTLIKDIENQTVLKDNDAIFEIDIKINYPEIKLSWYKGTEKLEPSNKYEISIDGDRHTLRVKNCQPKDQGNYRLVCGPHIASAKLTVIEPAWERHLQDVTLKEGQTCTMTCQFSVPNVKSEWFRNGRVLKPQGRVKTEVEHKVHKLTIADVRAEDQGQYTCKHEDLETSAELRIEAEPIQFTKRIQNIVVSEHQSATFECEVSFDDAIVTWYKGPTELTESQKYNFRNDGRCHYMTIHNVTPDDEGVYSVIARLEPRGEARSTAELYLTTKEIKLEMKPPDIPDSRVPIPTMPIRAVPPEEIPPAVAPSIPLLLPLP
  Kd: ~17 µM and ~7 µM

— publication PMC6167357 (2018)
